Measurements published in patent US20260103686A1, “MICROBIAL STRAIN, PROTEIN, AND METHOD FOR PRODUCING GALLIC ACID USING MICROBIAL STRAIN OR PROTEIN” (UNIVERSITY OF TSUKUBA, priority 2022, published 2026).

How the values were obtained:
[1] = Analysis of gallic acid-producing activities of purified enzymes (HPLC); assay type: biochemical; details: 2 mM PCA, 0.5 mM NADPH, 10 μg enzyme, 30° C., 30 minutes, pH 7.9
Description: Using the purified enzyme liquids of HyPobA, PoPobA, HgPobA-TY and PaPobA described above, the gallic acid-producing activities were analyzed.
By adding 10 μM FAD, 0.5 mM NADPH, 2 mM PCA and 10 μg of the respective purified enzyme liquids to 20 mM Tris-HCl buffer (pH 7.9), 100 μL of reaction liquids were prepared.

[2] = Reaction kinetic analysis of purified enzymes, substrate PCA (NADPH absorbance at 340 nm); assay type: biochemical; details: relative to PaPobA
Description: Using the purified enzyme liquids of HgPobA, HgPobA-TY, PoPobA, HyPobA and PaPobA described above, a reaction kinetic analysis was conducted.

B1: PoPobA: Polaromonas sp.-derived PobA, protocatechuic acid 5-hydroxylase (SEQ ID NO: 22) (protein, listed as Polaromonas sp.)
chain: MRTQVGIVGAGPAGLMLSHMLHLEGIESVIIERASREHVQSRLRAGVLEHGTVDMLRELGLGERIGKIGLEQHAIDFRFGGESHRLDFHQATNGRSAWVYPQHELVTDLMNARMQAGAEILFETPVTRIDGLHTSKPTVHFEQGGEPRELVCDFVVGCDGFRGVCRDAIPDTVLKTYDRVYPFGWLGILAEAPAPTREITWGCHEEGFAMLSIRSPSVTRLYLQCEPDDDPDHWSDDHIWAELHKRLDVPGMPPVNEGKIMQKGVTAMRSFLAEPMQYGKLFLAGDAAHIVPPTGAKGLNSAMADVKVLGRGLAEKYRRGADHLLERYSQICLKRMWLVQRFSAGLCTMVHQFPGDNAFVRRLQRADLDYMTGTAAGRLAFSENFTGLPIE
relative activity of producing gallic acid from PCA (PaPobA regarded as 1) [1]: 20 times | kcat value for PCA compared with that of PaPobA [2]: higher kcat values than that of PaPobA

B2: HgPobA: Hylemonella gracilis-derived PobA, protocatechuic acid 5-hydroxylase (SEQ ID NO: 20) (protein, listed as Hylemonella gracilis)
chain: MSYPTRTQVAIIGAGPSGLMLGALLHKAGIDTVVLERQSGDYVLGRIRAGVLEQVTMDLMDEIGVGARMHQEGLVHGGFDMLFQGQRHRIDMNRLTGGQNVMVYGQTEVTRDLMDARQQAGLTTIYEAANVAIHDFGSGKPRVTYEKDGKTHELQCDFIAGCDGFHGVCRDTVKKSASASAIREYEKVYNFGWLGLLSDTPPVHHELIYVNSERGFALCSQRSATRSRYYLQVPLTDKVEQWSDQAFWDELKLRLDPQAREHLVTGPSIEKSIAPLRSFVTEPLRFGRLFLAGDAGHIVPPAGAKGLNLAATDVKYLSAALTEFYQGKSEAGINHYSERCLKRIWRAERFSWWFTSLMHRFPENGEIGQKLQEAELDYIVHSETGARSVAENFVGLPLDFGA
kcat value for PCA compared with that of PaPobA [2]: higher kcat values than that of PaPobA

B3: HgPobA-TY: mutant protein of HgPobA with two mutations T302A and Y393F (protein, listed as Hylemonella gracilis)
chain: MSYPTRTQVAIIGAGPSGLMLGALLHKAGIDTVVLERQSGDYVLGRIRAGVLEQVTMDLMDEIGVGARMHQEGLVHGGFDMLFQGQRHRIDMNRLTGGQNVMVYGQTEVTRDLMDARQQAGLTTIYEAANVAIHDFGSGKPRVTYEKDGKTHELQCDFIAGCDGFHGVCRDTVKKSASASAIREYEKVYNFGWLGLLSDTPPVHHELIYVNSERGFALCSQRSATRSRYYLQVPLTDKVEQWSDQAFWDELKLRLDPQAREHLVTGPSIEKSIAPLRSFVTEPLRFGRLFLAGDAGHIVPPAGAKGLNLAATDVKYLSAALTEFYQGKSEAGINHYSERCLKRIWRAERFSWWFTSLMHRFPENGEIGQKLQEAELDYIVHSETGARSVAENFVGLPLDFGA
relative activity of producing gallic acid from PCA (PaPobA regarded as 1) [1]: eight | Km value for PCA compared with that of PaPobA [2]: one third or less

B4: HyPobA: Hydrogenophaga sp.-derived PobA, protocatechuic acid 5-hydroxylase (SEQ ID NO: 21) (protein, listed as Hydrogenophaga sp.)
chain: MRTQVGIIGAGPAGLMLAHMLHLEGIESVIIERSKREHVQNRLRAGVLEQGTVEMMRELGLGERIGQLGLEQHRIDFRFGGESHPIDFHEATGGRSAWVYPQHEVVKDLMAARTAAGAQMLFETPVTAIEGIDGTRPVVRFEKDGVAGELHCDFVVGCDGFRGISRRAIPAREGQVHDRIYPFGWLGILAEAPPATNEVTWGCHEDGFAMMSIRTPSVTRLYLQCEPDENPDHWSDDRIWSALHKRLDVPGLPPINEGRITQKGVTAMRSFLFEPMQHGRLFLAGDAAHIVPPTGAKGLNSAMADVKVLARALEQHYQRGSQDLLARYSKTCLKRMWLVQRFSAGLCTMVHSFAGDSSFVRRLQRADLDYMTGTTAGRLQFSENFTGLPID
relative activity of producing gallic acid from PCA (PaPobA regarded as 1) [1]: 20 times | kcat value for PCA compared with that of PaPobA [2]: higher kcat values than that of PaPobA

B5: PaPobA: Pseudomonas aeruginosa-derived PobA (SEQ ID NO: 28), known enzyme with high PCA-hydroxylating activity (protein, listed as Pseudomonas aeruginosa)
chain: MKTQVAIIGAGPSGLLLGQLLHKAGIDNVILERQTPDYVLGRIRAGVLEQGMVDLLREAGVDRRMARDGLVHEGVEIAFAGQRRRIDLKRLSGGKTVTVYGQTEVTRDLMEAREACGATTVYQAAEVRLHDLQGERPYVTFERDGERLRLDCDYIAGCDGFHGISRQSIPAERLKVFERVYPFGWLGLLADTPPVSHELIYANHPRGFALCSQRSATRSRYYVQVPLSEKVEDWSDERFWTELKARLPSEVAEKLVTGPSLEKSIAPLRSFVVEPMQHGRLFLAGDAAHIVPPTGAKGLNLAASDVSTLYRLLLKAYREGRGELLERYSAICLRRIWKAERFSWWMTSVLHRFPDTDAFSQRIQQTELEYYLGSEAGLATIAENYVGLPYEEIE
relative activity of producing gallic acid from PCA (PaPobA regarded as 1) [1]: 1 times
